According to patent US20150017095A1 (AbbVie / Abbott, published 2015):

Experiments:
[1] = target: T1, Recombinant Human IL-1β (human, UniProt P01584 117-269); assay: direct bind ELISA, antigen coated on plate (C-terminal VD)
T1 construct: also called IL-1b; IL-1B
Method: (§1) Enzyme Linked Immunosorbent Assays to screen for antibodies that bind a desired target antigen were performed as follows. High bind ELISA plates (Corning Costar #3369, Acton, Mass.) were coated with 100 μL/well of 10 μg/ml of desired target antigen (R&D Systems, Minneapolis, Minn.) or desired target antigen extra-cellular domain/FC fusion protein (R&D Systems, Minneapolis, Minn.) or monoclonal mouse anti-polyHistidine antibody (R&D Systems # MAB050, Minneapolis, Minn.) in phosphate buffered saline (10×PBS, Abbott Bioresearch Center, Media Prep# MPS-073, Worcester, Mass.) overnight at 4° C. Plates were washed four times with PBS containing 0.02% Tween 20. Plates were blocked by the addition of 300 μL/well blocking solution (non-fat dry milk powder, various retail suppliers, diluted to 2% in PBS) for ½ hour at room temperature. Plates were washed four times after blocking with PBS containing 0.02% Tween 20.
(§2) Plates were washed 4 times with PBS containing 0.02% Tween 20.
(§3) One hundred microliters of enhanced TMB solution (Neogen Corp. #308177, K Blue, Lexington, Ky.) was added to each well and incubated for 10 minutes at room temperature. The reaction was stopped by the addition of 50 μL 1N sulphuric acid.

[2] = target: T1, Recombinant Human IL-1β; assay: cell-based or functional assay
[3] = target: T1, Recombinant Human IL-1β; assay: direct bind ELISA, antigen coated on plate (N-terminal VD)
Method: as §1, §2, §3

[4] = target: T1, Recombinant Human IL-1β; assay: BIACORE SPR, DVD-Ig captured, antigen in flow (N-terminal VD)
Method: (§4) The BIACORE assay (Biacore, Inc, Piscataway, N.J.) determines the affinity of antibodies or DVD-Ig with kinetic measurements of on-rate and off-rate constants. […] All chemicals are obtained from Biacore® AB (Uppsala, Sweden) or otherwise from a different source as described in the text. For example, approximately 5000 RU of goat anti-mouse IgG, (Fcγ), fragment specific polyclonal antibody (Pierce Biotechnology Inc, Rockford, Ill.) diluted in 10 mM sodium acetate (pH 4.5) is directly immobilized across a CM5 research grade biosensor chip using a standard amine coupling kit according to manufacturer's instructions and procedures at 25 μg/ml. Unreacted moieties on the biosensor surface are blocked with ethanolamine. Modified carboxymethyl dextran surface in flowcell 2 and 4 is used as a reaction surface. Unmodified carboxymethyl dextran without goat anti-mouse IgG in flow cell 1 and 3 is used as the reference surface. For kinetic analysis, rate equations derived from the 1:1 Langmuir binding model are fitted simultaneously to association and dissociation phases of all eight injections (using global fit analysis) with the use of Biaevaluation 4.0.1 software. Purified antibodies or DVD-Ig are diluted in HEPES-buffered saline for capture across goat anti-mouse IgG specific reaction surfaces. Antibodies or DVD-Ig to be captured as a ligand (25 μg/m) are injected over reaction matrices at a flow rate of 5 μl/min. The association and dissociation rate constants, kₒₙ (M⁻¹s⁻¹) and koff (s⁻¹) are determined under a continuous flow rate of 25 μl/min. Rate constants are derived by making kinetic binding measurements at different antigen concentrations ranging from 10-200 nM. The equilibrium dissociation constant (M) of the reaction between antibodies or DVD-Igs and the target antigen is then calculated from the kinetic rate constants by the following formula: KD=koff/kₒₙ. Binding is recorded as a function of time and kinetic rate constants are calculated.

[5] = target: T2, Recombinant Human IL-17 (human, UniProt Q16552 20-155, limits assumed); assay: cell-based or functional assay
[6] = target: T2, Recombinant Human IL-17; assay: direct bind ELISA, antigen coated on plate (C-terminal VD)
Method: as §1, §2, §3

[7] = target: T2, Recombinant Human IL-17; assay: BIACORE SPR, DVD-Ig captured, antigen in flow (C-terminal VD)
Method: as §4

T2 sequence (Q16552 20-155 limits assumed): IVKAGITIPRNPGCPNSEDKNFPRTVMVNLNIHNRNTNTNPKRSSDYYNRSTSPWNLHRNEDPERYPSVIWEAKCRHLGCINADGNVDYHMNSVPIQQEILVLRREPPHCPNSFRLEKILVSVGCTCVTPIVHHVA

B1: DVD157 (PGE2 / IL-1b DVD-Ig) (bispecific antibody)
VH: EVQLVQSGAEVKKPGASVKVSCKASGYTFTKYWLGWVRQAPGQGLEWMGDIYPGYDYTHYNEKFKDRVTLTTDTSTSTAYMELRSLRSDDTAVYYCARSDGSSTYWGQGTLVTVSSASTKGPQVQLVESGGGVVQPGRSLRLSCAASGFTFSVYGMNWVRQAPGKGLEWVAIIWYDGDNQYYADSVKGRFTISRDNSKNTLYLQMNGLRAEDTAVYYCARDLRTGPFDYWGQGTLVTVSS
VL: DVLMTQTPLSLPVTPGEPASISCTSSQNIVHSNGNTYLEWYLQKPGQSPQLLIYKVSNRFSGVPDRFSGSGSGTDFTLKISRVEAEDVGVYYCFQVSHVPYTFGGGTKVEIKRTVAAPEIVLTQSPDFQSVTPKEKVTITCRASQSIGSSLHWYQQKPDQSPKLLIKYASQSFSGVPSRFSGSGSGTDFTLTINSLEAEDAAAYYCHQSSSLPFTFGPGTKVDIKR
notes: Outer domain is AB048 (PGE2), inner domain is AB032 (IL-1b); also called VD157H; VD157L
- EC50 [1]: 2480 nM
- C-terminal VD IL-1β Neutralization Assay EC50 nM (IL-8 release by MRC5 cells) [2]: 3.22 nM

B2: DVD158 (IL-1b / PGE2 DVD-Ig) (bispecific antibody)
VH: QVQLVESGGGVVQPGRSLRLSCAASGFTFSVYGMNWVRQAPGKGLEWVAIIWYDGDNQYYADSVKGRFTISRDNSKNTLYLQMNGLRAEDTAVYYCARDLRTGPFDYWGQGTLVTVSSASTKGPEVQLVQSGAEVKKPGASVKVSCKASGYTFTKYWLGWVRQAPGQGLEWMGDIYPGYDYTHYNEKFKDRVTLTTDTSTSTAYMELRSLRSDDTAVYYCARSDGSSTYWGQGTLVTVSS
VL: EIVLTQSPDFQSVTPKEKVTITCRASQSIGSSLHWYQQKPDQSPKLLIKYASQSFSGVPSRFSGSGSGTDFTLTINSLEAEDAAAYYCHQSSSLPFTFGPGTKVDIKRTVAAPDVLMTQTPLSLPVTPGEPASISCTSSQNIVHSNGNTYLEWYLQKPGQSPQLLIYKVSNRFSGVPDRFSGSGSGTDFTLKISRVEAEDVGVYYCFQVSHVPYTFGGGTKVEIKR
notes: Outer domain is AB032 (IL-1b), inner domain is AB048 (PGE2); also called VD158H; VD158L
- EC50 [3]: 17.6 nM
- Kd [4]: 0.0387 nM
- koff [4]: 3.84e-05 s⁻¹
- kon [4]: 992000 M⁻¹ s⁻¹
- N-terminal VD IL-1β Neutralization Assay EC50 nM (IL-8 release by MRC5 cells) [2]: 0.11 nM

B3: DVD155 (PGE2 / IL-17A DVD-Ig) (bispecific antibody)
VH: EVQLVQSGAEVKKPGASVKVSCKASGYTFTKYWLGWVRQAPGQGLEWMGDIYPGYDYTHYNEKFKDRVTLTTDTSTSTAYMELRSLRSDDTAVYYCARSDGSSTYWGQGTLVTVSSASTKGPEVQLVESGGGLVQPGGSLRLSCAASGFTFSNYWMNWVRQAPGKGLEWVAAINQDGSEKYYVGSVKGRFTISRDNAKNSLYLQMNSLRVEDTAVYYCVRDYYDILTDYYIHYWYFDLWGRGTLVTVSS
VL: not shown
notes: Outer domain is AB048 (PGE2), inner domain is AB029 (IL-17A); also called VD155H; VD155L
- C-terminal VD IL-17 Neutralization Assay EC50 nM (IL-6 secretion by HS27 cells) [5]: 5.7e-05 nM
- EC50 [6]: 248 nM
- Kd [7]: 3.37 nM
- koff [7]: 0.000125 s⁻¹
- kon [7]: 37000 M⁻¹ s⁻¹
